From US20160264664A1 (Ablynx, published 2016)
Residue numbers refer to the chain shown, from its start.

T1: mouse P2X7 (mouse, UniProt Q9Z1M0 1-595)
T1 sequence: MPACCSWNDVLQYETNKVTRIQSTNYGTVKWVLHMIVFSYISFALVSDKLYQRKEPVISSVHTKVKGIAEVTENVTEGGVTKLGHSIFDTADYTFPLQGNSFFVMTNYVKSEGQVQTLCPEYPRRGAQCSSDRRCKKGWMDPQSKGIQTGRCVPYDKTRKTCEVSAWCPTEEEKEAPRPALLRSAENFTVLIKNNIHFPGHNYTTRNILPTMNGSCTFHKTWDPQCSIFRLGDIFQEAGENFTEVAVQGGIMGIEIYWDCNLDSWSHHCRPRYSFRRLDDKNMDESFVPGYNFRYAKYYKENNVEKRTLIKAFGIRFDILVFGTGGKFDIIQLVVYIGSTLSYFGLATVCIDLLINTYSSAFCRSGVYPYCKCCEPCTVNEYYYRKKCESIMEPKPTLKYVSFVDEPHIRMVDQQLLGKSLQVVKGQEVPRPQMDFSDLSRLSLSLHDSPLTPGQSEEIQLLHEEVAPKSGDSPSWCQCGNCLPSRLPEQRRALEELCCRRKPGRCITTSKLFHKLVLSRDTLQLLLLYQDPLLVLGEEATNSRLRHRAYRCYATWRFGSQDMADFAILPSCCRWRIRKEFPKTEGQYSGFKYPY

T2: human P2X7 (human, UniProt Q99572 1-595)
T2 construct: on transfected Hek293 cells; also called hP2X7
T2 sequence: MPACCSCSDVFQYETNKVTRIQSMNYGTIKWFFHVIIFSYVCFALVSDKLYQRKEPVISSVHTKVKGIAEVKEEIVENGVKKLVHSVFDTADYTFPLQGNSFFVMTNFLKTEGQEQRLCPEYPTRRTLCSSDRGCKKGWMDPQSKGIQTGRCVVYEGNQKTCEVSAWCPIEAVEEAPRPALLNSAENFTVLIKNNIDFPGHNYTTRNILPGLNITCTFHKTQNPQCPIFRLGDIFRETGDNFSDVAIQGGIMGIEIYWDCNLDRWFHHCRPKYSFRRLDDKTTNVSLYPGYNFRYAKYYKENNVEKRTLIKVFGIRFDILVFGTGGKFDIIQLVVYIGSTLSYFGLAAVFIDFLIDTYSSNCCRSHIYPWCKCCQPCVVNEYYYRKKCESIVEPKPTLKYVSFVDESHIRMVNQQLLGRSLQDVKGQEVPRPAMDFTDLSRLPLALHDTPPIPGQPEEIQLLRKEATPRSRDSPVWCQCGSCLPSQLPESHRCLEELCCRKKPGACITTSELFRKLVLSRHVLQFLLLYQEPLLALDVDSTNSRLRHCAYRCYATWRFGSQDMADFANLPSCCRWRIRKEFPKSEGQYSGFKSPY

T3: human P2X4 (human, UniProt Q99571 1-388)
T3 construct: whole, on cells; also called hP2X4
T3 sequence (looked up): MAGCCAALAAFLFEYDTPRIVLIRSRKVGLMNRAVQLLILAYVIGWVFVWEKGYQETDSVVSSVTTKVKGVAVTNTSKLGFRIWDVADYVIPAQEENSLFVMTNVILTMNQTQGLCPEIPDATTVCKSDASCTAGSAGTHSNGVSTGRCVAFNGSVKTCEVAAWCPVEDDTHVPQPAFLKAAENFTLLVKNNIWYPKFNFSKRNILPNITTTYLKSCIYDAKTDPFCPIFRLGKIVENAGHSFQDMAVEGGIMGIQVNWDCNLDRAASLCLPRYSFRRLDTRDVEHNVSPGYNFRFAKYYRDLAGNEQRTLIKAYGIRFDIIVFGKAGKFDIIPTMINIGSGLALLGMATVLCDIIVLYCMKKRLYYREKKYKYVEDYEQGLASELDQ

T4: mouse P2X7 mutant R151A (mouse, UniProt Q9Z1M0 1-595)
T4 construct: transiently transfected Hek293 cells
T4 sequence: T1 sequence with R151A

B1: P2X7PMP14D5 (VHH)
VHH: KVQLVESGGGLVQAGGSLRLSCAASGSPISSYAMGWYRQAPGKPRELVARIYTGGTAWYEDSVKGRFTISRDNAQNTVYLQMNSLKSEDTAVYYCHGRVRYDYWGQGTQVTVSS
notes: family 17; on phage or c-myc/His6-tagged in assays
B2: P2X7PMP8G12 (VHH)
VHH: KVQLVESGGGLVQAGGSLRLSCAASGSFFRVNNMAWYRQGPGKQRELVADITRGDRTNYADSVNGRFTISRDNVRNTVYLQMNGLKPEDTAVYYCYATIELGVLEPRDYWGQGTQVTVSS
notes: family 5, 3; on phage or c-myc/His6-tagged in assays; also called 8012
B3: P2X7PMP8G11 (VHH)
VHH: B2 VHH with K1A, S27N, N33T, G40A, S62T, K86R, V92A, T98V
notes: family 5, 1; on phage or c-myc/His6-tagged in assays; also called 8011
B4: P2X7PMP7H6 (VHH)
VHH: EVQLVESGGGLVQPGGSLRLSCVVSGSMYRIDNMGWYRQAPGKQRELVATVTRGDITNYADSVKGRFTIGRDNAKNTVYLQMNSLKPADTAVYYCNIDSYIIGAGVRDYWGRGTQVTVSS
notes: family 11; on phage or c-myc/His6-tagged in assays
B5: P2X7PMP7D5 (VHH)
VHH: EVQLVESGGGLVQAGDSLRLSCAASGRTFSSVAVGWFRQAPGKERDFVAWISWSGDSTYYADSVKGRFTASRDNVNNTVYLQMNSLKPEDTADYYCAAAWKYDRASYDFPEAYDYWGQGTQVTVSS
notes: family 14; on phage or c-myc/His6-tagged in assays
B6: P2X7PMP6B7 (VHH)
VHH: EVQLVESGGGLVQAGGSLRLSCVVSGRTFSAMGWFRQAPGKEREFVATVGWNPMNSYYGDSVKGRFTIFRDNAKNTVYLQMNSLKPEDTAVYYCAGSGSLLDVTSEAVYTDWGQGTQVTVSS
notes: family 16; on phage or c-myc/His6-tagged in assays
B7: P2X7PMP7E2 (VHH)
VHH: EVQLVESGGGLVQAGGSLRLSCAAPERTYSMGWFRQAPGKEREFVAGSGWDGIPTRYADSVKGRFTISRDNAKNTVSLQMSGLKPEDTAIYYCATGTSVYHYQYWGQGTQVTVSS
notes: family 3; on phage or c-myc/His6-tagged in assays
B8: P2X7PMP2C4 (VHH)
VHH: EVQLVESGGDVVQAGGSLRLSCLASGFTFDDYAIGWFRQAPGKEREGISCISSTGNVFYADSVKGRFTISSDKEKNTLYLQMNSLKPEDTAVYHCAAGHFTVDSGKVLLRTDISSWGQGTQVTVSS
notes: family 1; on phage or c-myc/His6-tagged in assays
B9: P2X7PMP20A11 (VHH)
VHH: EVQLVESGGRVMQTGGSLRLSCAASGHTFNDYNMGWFRQAPGKELEFLAGINWSGMSTWYADSVKDRFTISRDNNKNTVFLQMNSLEPGDTAVYYCAARQWISTIILTAPSQYDYWGQGTQVTVSS
notes: family 24; on phage or c-myc/His6-tagged in assays
B10: P2X7PMP13F6 (VHH)
VHH: EVQLVESGGGLVQPGGSLRLSCAASGFTFSTNIMTWVRQAPGKGLEWISTINSGGGTTTYADSVRGRFTISRDNAKNMLYLQMSSLKPEDTALYYCITPRGVKGRGTQVTVSS
notes: family 20; on phage or c-myc/His6-tagged in assays

biological target: T1, mouse P2X7; assay: cell-based or functional assay

Binder | EC50, enhancement of CD62L-ectodomain shedding at 1.5 µM NAD | EC50, enhancement of CD62L-ectodomain shedding at 33 µM ATP
B1 | 4.1 nM | 22.6 nM

biological target: T1, mouse P2X7; assay: cell-based or functional assay; remark: another data set of the same source

Binder | ATP IC50 by 2 uM NB (head prints 'mM'; ligand titration at fixed Nanobody, CD62L shedding, Yac-1 cells) | IC50 (nM) against 20 uM NAD (CD62L shedding, Yac-1 cells) | IC50 (nM) against 100 uM ATP (CD62L shedding, Yac-1 cells)
B2 | 0.29 mM | 82 nM | 55 nM
B3 | 0.389 mM | 68 nM | 37 nM
B1 | 0.016 mM | – | –
B4 | 0.494 mM | 208 nM | 123 nM

biological target: T1, mouse P2X7; assay: cell-based or functional assay; remark: another data set of the same source

Binder | IC50 (read off the curve)
B3 | ~60 nM

biological target: T1, mouse P2X7; assay: cell-based or functional assay; remark: another data set of the same source

Binder | IC50 (read off the curve)
B3 | ~20 nM

biological target: T1, mouse P2X7; assay: phage ELISA, mP2X7-CHO vs control CHO cells
Protocol: (§1) Sub-confluent cells were rinsed with PBS and fixed using 4% paraformaldehyde in PBS for 10 minutes at RT. Fixed cells were washed three times with PBS, and blocked with 2% BSA in PBS for 2 hours. Following blocking, 10-fold diluted culture supernatant containing phage was added and incubated for 1 hour. Cell-bound phage was detected via mouse anti-M13-HRP-conjugate (GE Healthcare, Cat nr. E2886). Rat mAb Hano43 was used as positive control.

Binder | absorption ratio (ELISA)
B2 | 36 ratio
B3 | 26 ratio

biological target: T2, human P2X7; assay: flow cytometry, Nanobody pre-incubated with anti-Myc-FITC

Binder | binding result
B2 | no binding (tested: 147 nM)
B5 | no binding (tested: 147 nM)
B6 | no binding (tested: 147 nM)
B7 | no binding (tested: 147 nM)
B4 | no binding (tested: 147 nM)
B8 | no binding (tested: 147 nM)
B9 | no binding (tested: 147 nM)
B10 | no binding (tested: 147 nM)

biological target: T3, human P2X4; assay: as above

Binder | binding result
B2 | no binding (tested: 147 nM)
B3 | no binding (tested: 147 nM)
B1 | no binding (tested: 147 nM)
B5 | no binding (tested: 147 nM)
B6 | no binding (tested: 147 nM)
B7 | no binding (tested: 147 nM)
B4 | no binding (tested: 147 nM)
B8 | no binding (tested: 147 nM)
B9 | no binding (tested: 147 nM)
B10 | no binding (tested: 147 nM)

biological target: T1, mouse P2X7; assay: flow cytometry, purified Nanobody titrated on mP2X7-CHO cells

Binder | EC50
B5 | 3 nM
B7 | 4.3 nM

biological target: T1, mouse P2X7; assay: phage ELISA on fixed mP2X7-CHO vs untransfected CHO cells;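 note: phage culture supernatant diluted 10-fold, applied for 1 h to paraformaldehyde-fixed, BSA-blocked cells in 96-well plates, with bound phage read via HRP-linked anti-M13 antibody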
Protocol: as §1

Binder | Fold Cho P2X7/wt (phage ELISA)
B2 | 36 fold
B3 | 26 fold
B1 | 8 fold
B5 | 14 fold
B6 | 24 fold
B7 | 25 fold
B4 | 23 fold

biological target: T1, mouse P2X7; assay: flow cytometry, periplasmic extract pre-incubated with anti-myc-FITC, on mP2X7-Hek293 cells;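 note: periplasmic extract diluted 10-fold and premixed 45 min at 4 °C with FITC anti-myc antibody, giving pseudo-bivalent Nanobodies, before binding to the cells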
Protocol: Ten-fold diluted PE were pre-incubation with 0.5 μg anti-myc FITC-conjugated antibodies (AbD Serotec, cat no. MCA2200F) (creating pseudo-bivalent Nanobodies in order to increase binding strength) in 0.1 ml PBS/10% FCS for 45 minutes at 4° C. […] Alternatively, sequential staining of 10-fold diluted PE with anti-myc FITC-conjugated antibodies was done after incubation with the cells.

Binder | MFI FACS (pre-Myc incubation)
B2 | 166 MFI
B3 | 166 MFI

biological target: T4, mouse P2X7 mutant R151A; assay: flow cytometry, 1 µM Nanobody on transiently transfected Hek293 cells, normalised to Hano43 staining
Protocol: For flow cytometric assays, detection of Nanobodies was performed via anti-Myc and subsequent goat anti-mouse-PE conjugate, while an estimation of P2X7 expression densities was obtained via staining with rat monoclonal Hano43 followed by secondary anti-rat-PE conjugate.

Binder | reduction of binding against WT mP2X7
B2 | > 90%
B3 | > 90%
B5 | > 90%
B6 | > 90%
B7 | > 90%
B4 | > 90%

biological target: T1, mouse P2X7; assay: phage ELISA on fixed mP2X7-CHO vs untransfected CHO cells; phage ELISA, phage-displayed Nanobody, Cho P2X7 vs wt signal ratio
Protocol: as §1

Binder | Fold Cho P2X7/wt (phage ELISA)
B8 | 4 fold
B9 | 11 fold
B10 | 20 fold
